Here are results for 1 variant from IntAct's records for PubMed 18628306.

B1: Mitochondrial chaperone BCS1 (Homo sapiens), Q9Y276 (parent)
chain: MPLSDFILALKDNPYFGAGFGLVGVGTALALARKGVQLGLVAFRRHYMITLEVPARDRSYAWLLSWLTRHSTRTQHLSVETSYLQHESGRISTKFEFVPSPGNHFIWYRGKWIRVERSREMQMIDLQTGTPWESVTFTALGTDRKVFFNILEEARELALQQEEGKTVMYTAVGSEWRPFGYPRRRRPLNSVVLQQGLADRIVRDVQEFIDNPKWYTDRGIPYRRGYLLYGPPGCGKSSFITALAGELEHSICLLSLTDSSLSDDRLNHLLSVAPQQSLVLLEDVDAAFLSRDLAVENPVKYQGLGRLTFSGLLNALDGVASTEARIVFMTTNHVDRLDPALIRPGRVDLKEYVGYCSHWQLTQMFQRFYPGQAPSLAENFAEHVLRATNQISPAQVQGYFMLYKNDPVGAIHNAESLRR

The variants in the assay derive from B1. The settings on record: with letm1_human LETM1, O95202.
Chain of letm1_human LETM1, O95202 (O95202 whole entry): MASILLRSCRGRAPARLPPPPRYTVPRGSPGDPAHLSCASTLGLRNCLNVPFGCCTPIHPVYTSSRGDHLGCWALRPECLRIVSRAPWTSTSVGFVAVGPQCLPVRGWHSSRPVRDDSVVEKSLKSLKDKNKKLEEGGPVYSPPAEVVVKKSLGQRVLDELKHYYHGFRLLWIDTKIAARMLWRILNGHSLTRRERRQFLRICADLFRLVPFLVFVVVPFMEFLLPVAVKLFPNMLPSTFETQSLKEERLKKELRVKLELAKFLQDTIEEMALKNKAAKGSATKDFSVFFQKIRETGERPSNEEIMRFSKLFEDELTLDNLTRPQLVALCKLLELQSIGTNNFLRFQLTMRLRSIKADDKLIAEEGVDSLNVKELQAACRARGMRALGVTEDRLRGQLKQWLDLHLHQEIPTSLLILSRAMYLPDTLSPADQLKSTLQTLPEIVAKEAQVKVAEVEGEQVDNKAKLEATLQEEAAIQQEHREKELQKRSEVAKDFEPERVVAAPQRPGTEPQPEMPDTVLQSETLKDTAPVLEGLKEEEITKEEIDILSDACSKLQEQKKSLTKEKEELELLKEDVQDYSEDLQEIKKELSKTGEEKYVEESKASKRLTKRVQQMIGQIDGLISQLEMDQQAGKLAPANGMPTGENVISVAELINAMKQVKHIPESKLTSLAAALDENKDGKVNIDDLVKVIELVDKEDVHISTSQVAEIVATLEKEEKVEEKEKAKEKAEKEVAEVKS
R155P: the “effect of a mutation on the interaction” value is “disrupting interaction”.
